Data on 2 molecules can be found in article PMC10572626, “NMR-Based Characterization of the Interaction between Yeast Oxa1-CTD and Ribosomes” (International Journal of Molecular Sciences, 2023).

Broadly, the Kd is a measure of binding affinity in units of concentration. In general, stoichiometry N refers to a count of units in the complex or per binding partner.

Series [1] deals with C-terminal domain of yeast S. cerevisiae mitochondrial oxidase assembly protein 1 (Oxa1-CTD, W320-K402) (S. cerevisiae) (UniProt P39952). Briefly: MST; Oxa1-CTD (20 µM, labelled with red fluorescent dye) kept constant; E. coli 70S or BSA titrated 1.21-20,000 nM; 20 mM HEPES pH 7.2, 75 mM NaCl, 20 mM MgCl2; three repeats.
Series [2] deals with the molecule itself. The series is described as follows: SEC; Superdex 75 increase 10/300 GL in NMR buffer (20 mM HEPES pH 7.2, 75 mM NaCl, 20 mM MgCl2, 5 mM β-mercaptoethanol); oligomeric state inferred from elution volumes against standards of the column's manual. For orientation: Size exclusion chromatography separates by hydrodynamic size, large species first.

Consider E. coli 70S ribosome (complex), for which, in series [1], the Kd was found to be 450 nM. That is a sub-micromolar value.

B1: C-terminal domain of yeast S. cerevisiae mitochondrial oxidase assembly protein 1 (Oxa1-CTD, W320-K402) (domain or fragment, UniProt P39952 320-402, looked up)
chain: WVRSKLKITEVAKPRTPIAGASPTENMGIFQSLKHNIQKARDQAERRQLMQDNEKKLQESFKEKRQNSKIKIVHKSNFINNKK
modifications: red fluorescent dye (Monolith NT protein labeling kit) in the MST assay; 15N-labelled in the NMR titration
notes: Oxa1, yeast S. cerevisiae, C-terminal domain, residues W320 to K402 (pI = 10.5); cloned into pET-14b with an N-terminal 6x His-tag and a thrombin cleavage site; also called C-terminus of Oxa1; pET14b-Oxa1-CTD (W320-K402)
Consider B1, for which the “stoichiometry N” value in series [2] was determined as 2.
